The nature of the data set: self-splicing fitness, log relative to wild type (ln ratio); higher = more splicing; Tetrahymena group I intron in knt gene, E. coli kanamycin selection, DiMSum; sequences stand for … in CUCUCU…GGAGGGAAAAGUUAUCAGGCAUGCACCUGGUAGCUAGUCUUUAAACCAAUAGAUUGCAUCGGUUUAAAAGGCAAGACCGUCAAAUUGCGGGAAAGGGGUCAACAGCCGUUCAGUACCAAGUCUCAGGGGAAACUUUGAGAUGGCCUUGCAAAGGGUAUGGUAAUAAGCUGACGGACAUGGUCCUAACCACGCAGCCAAGUCCUAAGUCAACAGAUCUUCUGUUGAUAUGGAUGCAGUUCACAGACUAAAUGUCGGUCGGGGAAGAUGUAUUCUUCUCAUAAGAUAUAGUCGGACCUCUCCUUAAUGGGAGCUAGCGGAUGAAGUGAUGCAACACUGGAGCCGCUGGGAACUAAUUUGUAUGCGAAAGUAUAUUGAUUAGUUUUGGAGUACUCGUGGUCG
In outline: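 DiMSum derived fitness as the error-weighted combination of fold changes across replicates, kanamycin versus no kanamycin, normalised to wild type. E. coli BL21(DE3) held the library, which randomised all eight P1ex-region intron nucleotides within the knt kanamycin-resistance gene on pET-22b(+). Six replicate transformations grew overnight at 37°C or 30°C on LB agar with or without 25 μg/mL kanamycin, also containing 100 μg/mL carbenicillin, 50 μM IPTG and 0.2% rhamnose, and pooled colonies were amplicon-sequenced on an Illumina HiSeq 2500.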

± gives the uncertainty stated by the source.

For CCGGAGCAAUAUUACGUACA, the “self-splicing fitness (ln)” value (30 °C) was -3.36 ± 0.4.
For the sequence AAACAGCAAUAUUACGGAUA, the “self-splicing fitness (ln)” value (30 °C) was -2.99 ± 0.15 and the “self-splicing fitness (ln)” value (37 °C) is -1.92 ± 0.14.
On the same counts, the results for UAUAAGCAAUAUUACGUCGG are -0.782 ± 0.076 and -0.0864 ± 0.098.
On the same counts, the results for UAUUAGCAAUAUUACGAGAG are -3.48 ± 0.26 and -3.11 ± 0.29.
On the same counts, the results for CCGCAGCAAUAUUACGAAGC are -3.14 ± 0.22 and -3.36 ± 0.25.
In the case of ACUAAGCAAUAUUACGGUCG, the “self-splicing fitness (ln)” value (30 °C) was -2.89 ± 0.16 and the “self-splicing fitness (ln)” value (37 °C) is -1.47 ± 0.15.
The corresponding values for GUAGAGCAAUAUUACGAGAU are -4.13 ± 0.23 and -0.661 ± 0.16.
On the same counts, the results for AAACAGCAAUAUUACGUAAG are -1.23 ± 0.044 and -0.526 ± 0.065.
On to GUCUAGCAAUAUUACGUGGU, for which the “self-splicing fitness (ln)” value (30 °C) is -2.5 ± 0.09 and the “self-splicing fitness (ln)” value (37 °C) was -0.907 ± 0.078.
With UGCAAGCAAUAUUACGGCAC, the “self-splicing fitness (ln)” value reads like this: (30 °C) -3.59 ± 0.4; (37 °C) -3.28 ± 0.33.
The corresponding values for GCUCAGCAAUAUUACGGCCG are -3.86 ± 0.27 and -2.15 ± 0.27.
CUUUAGCAAUAUUACGGCUG: the “self-splicing fitness (ln)” value runs as follows: (30 °C) -1.48 ± 0.14; (37 °C) -0.483 ± 0.14.
The corresponding values for CUAAAGCAAUAUUACGGGUG are 0.107 ± 0.039 and 0.493 ± 0.064.
On the same counts, the results for UGCUAGCAAUAUUACGUUGG are -3.3 ± 0.19 and -2.49 ± 0.2.
The corresponding values for UAGCAGCAAUAUUACGGACA are -0.821 ± 0.11 and -0.11 ± 0.13.
With UGUCAGCAAUAUUACGACUG, the “self-splicing fitness (ln)” value runs as follows: (30 °C) -0.284 ± 0.1; (37 °C) 0.525 ± 0.13.
Take CUCGAGCAAUAUUACGUUUG: the “self-splicing fitness (ln)” value (30 °C) is -3.74 ± 0.24 and the “self-splicing fitness (ln)” value (37 °C) was -2.11 ± 0.16.
The corresponding values for AUCGAGCAAUAUUACGGAGA are -2.8 ± 0.22 and -2.7 ± 0.29.
On the same counts, the results for CGAUAGCAAUAUUACGCAAC are -3.83 ± 0.4 and -2.49 ± 0.3.
For the sequence GAAGAGCAAUAUUACGGGAC, the “self-splicing fitness (ln)” value reads like this: (30 °C) -3.76 ± 0.25; (37 °C) -2.3 ± 0.24.
On the same counts, the results for CAGUAGCAAUAUUACGCGGC are -2.92 ± 0.32 and -2.14 ± 0.5.
On the same counts, the results for UACGAGCAAUAUUACGGGUC are -3.23 ± 0.26 and -3.06 ± 0.43.
On the same counts, the results for AUGGAGCAAUAUUACGUUAU are -2.96 ± 0.13 and -1.77 ± 0.12.
For CAUAAGCAAUAUUACGUCUG, the “self-splicing fitness (ln)” value reads like this: (30 °C) -0.477 ± 0.065; (37 °C) -0.45 ± 0.082.
The corresponding values for UUAAAGCAAUAUUACGUGAG are -0.984 ± 0.063 and -0.201 ± 0.1.
The corresponding values for ACGCAGCAAUAUUACGCUAC are -1.93 ± 0.25 and -2.59 ± 0.45.
The corresponding values for AGUCAGCAAUAUUACGACGG are -0.725 ± 0.067 and -0.096 ± 0.1.
With CCUAAGCAAUAUUACGUUAG, the “self-splicing fitness (ln)” value (30 °C) is -1.95 ± 0.11 and the “self-splicing fitness (ln)” value (37 °C) is -2.03 ± 0.11.
The corresponding values for GAAUAGCAAUAUUACGGCUA are -0.51 ± 0.15 and -0.595 ± 0.14.
Regarding GAGAAGCAAUAUUACGAAGG, the “self-splicing fitness (ln)” value (30 °C) is -2.97 ± 0.24.
In the case of UUACAGCAAUAUUACGCUCU, the “self-splicing fitness (ln)” value is, setting by setting: (30 °C) -1.01 ± 0.074; (37 °C) -0.47 ± 0.087.
Turning to UGCAAGCAAUAUUACGCCAC, where the note is “37 °C”, the “self-splicing fitness (ln)” value is -3.58 ± 0.42.
On to GAGAAGCAAUAUUACGAAUG, for which the “self-splicing fitness (ln)” value is -3.46 ± 0.28 (30 °C) and -1.7 ± 0.18 (37 °C).
On the same counts, the results for GGCGAGCAAUAUUACGCAGA are -3.15 ± 0.4 and -2.31 ± 0.23.
As for UCUCAGCAAUAUUACGGUCC, the “self-splicing fitness (ln)” value (30 °C) was -3 ± 0.31.
In the case of GUCUAGCAAUAUUACGAUUG, under “37 °C”, the “self-splicing fitness (ln)” value is -2.14 ± 0.26.
Still for that read-out and setting: next, CCAGAGCAAUAUUACGUAUA: -2.35 ± 0.29.
In the case of AUGCAGCAAUAUUACGGUGA, the “self-splicing fitness (ln)” value (30 °C) is -0.911 ± 0.093 and the “self-splicing fitness (ln)” value (37 °C) is -0.872 ± 0.1.
The corresponding values for GUACAGCAAUAUUACGAAUG are -3.54 ± 0.25 and -0.988 ± 0.18.
On the same counts, the results for GUCCAGCAAUAUUACGACCC are -0.218 ± 0.18 and 0.168 ± 0.21.
On the same counts, the results for CUCGAGCAAUAUUACGUUAA are -3.68 ± 0.2 and -2.53 ± 0.17.
For the sequence UCAGAGCAAUAUUACGUCCA, the “self-splicing fitness (ln)” value reads like this: (30 °C) -3.75 ± 0.47; (37 °C) -2.25 ± 0.39.
The corresponding values for UUGAAGCAAUAUUACGCUAG are -0.524 ± 0.19 and -0.328 ± 0.17.
Turning to AUUGAGCAAUAUUACGAACC, the “self-splicing fitness (ln)” value (37 °C) was -2.31 ± 0.46.
GCAUAGCAAUAUUACGGCGA: the “self-splicing fitness (ln)” value (30 °C) is -0.526 ± 0.15 and the “self-splicing fitness (ln)” value (37 °C) was -0.873 ± 0.15.
The corresponding values for GUCAAGCAAUAUUACGUAGC are -1.55 ± 0.12 and -1.07 ± 0.15.
The corresponding values for UUAUAGCAAUAUUACGUUCG are -0.942 ± 0.091 and 0.154 ± 0.14.
With UGGGAGCAAUAUUACGGCAC, the “self-splicing fitness (ln)” value (37 °C) was -0.43 ± 0.35.
Consider UAUUAGCAAUAUUACGCCAA, for which the “self-splicing fitness (ln)” value reads like this: (30 °C) -1.65 ± 0.2; (37 °C) -1.68 ± 0.23.
Take UCUGAGCAAUAUUACGACCU: for the setting “37 °C”, the “self-splicing fitness (ln)” value was -2.62 ± 0.31.
CGCUAGCAAUAUUACGCUUG: the “self-splicing fitness (ln)” value runs as follows: (30 °C) -3.3 ± 0.27; (37 °C) -3 ± 0.4.
On the same counts, the results for AGUAAGCAAUAUUACGCGCG are -1.05 ± 0.21 and -0.403 ± 0.21.
On the same counts, the results for AAUUAGCAAUAUUACGGAAA are -1.83 ± 0.29 and -1.72 ± 0.49.
On the same counts, the results for CGCAAGCAAUAUUACGCGAA are -3.58 ± 0.16 and -1.87 ± 0.13.
On to GCACAGCAAUAUUACGUAAC, for which the “self-splicing fitness (ln)” value was -1.83 ± 0.092 (30 °C) and -0.651 ± 0.11 (37 °C).
The corresponding values for CCUCAGCAAUAUUACGUCGU are -3.24 ± 0.15 and -2.82 ± 0.24.
The corresponding values for CGGAAGCAAUAUUACGGAGU are -4.49 ± 0.39 and -2.12 ± 0.2.
The corresponding values for CCAGAGCAAUAUUACGGAGG are -2.49 ± 0.18 and -1.87 ± 0.24.
As for GUGUAGCAAUAUUACGGUCU, the “self-splicing fitness (ln)” value is -1.6 ± 0.2 (30 °C) and 0.619 ± 0.2 (37 °C).
The corresponding values for AGCCAGCAAUAUUACGAGAG are -4.55 ± 0.27 and -3.02 ± 0.21.
On the same counts, the results for GAAUAGCAAUAUUACGAAAC are -1.62 ± 0.24 and -0.632 ± 0.17.
The corresponding values for GCUAAGCAAUAUUACGCAGA are -2.53 ± 0.26 and -0.61 ± 0.21.
Regarding ACCAAGCAAUAUUACGUGAU, the “self-splicing fitness (ln)” value was -2.46 ± 0.072 (30 °C) and -0.924 ± 0.074 (37 °C).
On the same counts, the results for CCCUAGCAAUAUUACGUGGG are -3.48 ± 0.1 and -2.54 ± 0.14.
On the same counts, the results for AGUGAGCAAUAUUACGGGGG are -3.05 ± 0.31 and -2.87 ± 0.3.
The corresponding values for UUGUAGCAAUAUUACGAUAA are -1.44 ± 0.11 and -0.33 ± 0.17.
For CGCAAGCAAUAUUACGUGAC, the “self-splicing fitness (ln)” value reads like this: (30 °C) -2.74 ± 0.2; (37 °C) -2.5 ± 0.3.
The corresponding values for AGUGAGCAAUAUUACGAUCG are -0.663 ± 0.23 and -0.975 ± 0.24.
For GGUGAGCAAUAUUACGACUC, the “self-splicing fitness (ln)” value is, setting by setting: (30 °C) -1.13 ± 0.15; (37 °C) -0.634 ± 0.22.
The corresponding values for AGUCAGCAAUAUUACGACCA are -0.2 ± 0.12 and 0.345 ± 0.14.
GGUCAGCAAUAUUACGCAGG: for the setting “37 °C”, the “self-splicing fitness (ln)” value is -3.55 ± 0.3.
On to GCAAAGCAAUAUUACGGUUC, for which the “self-splicing fitness (ln)” value (30 °C) is -2.17 ± 0.089 and the “self-splicing fitness (ln)” value (37 °C) was -0.948 ± 0.11.
With UUGAAGCAAUAUUACGAUAC, the “self-splicing fitness (ln)” value is, setting by setting: (30 °C) -2.62 ± 0.2; (37 °C) -2.62 ± 0.26.
The corresponding values for UCGCAGCAAUAUUACGUGAC are -5.1 ± 0.38 and -2.41 ± 0.26.
The corresponding values for CAACAGCAAUAUUACGCGUC are -3.55 ± 0.22 and -1.98 ± 0.13.
Consider GGGAAGCAAUAUUACGUGAC, for which the “self-splicing fitness (ln)” value was -1.99 ± 0.18 (30 °C) and 0.336 ± 0.21 (37 °C).
Regarding UAAUAGCAAUAUUACGUAUC, for the setting “37 °C”, the “self-splicing fitness (ln)” value was -2.68 ± 0.48.
Take GGAUAGCAAUAUUACGGGCG: the “self-splicing fitness (ln)” value is -1.69 ± 0.13 (30 °C) and -0.955 ± 0.094 (37 °C).
As for UGGAAGCAAUAUUACGCAUU, the “self-splicing fitness (ln)” value (30 °C) is -2.63 ± 0.27.

These data come from the supplement of paper PMC7877785.
